Assay [1] deals with EPHA2 fused to a fluorescent protein for FRET (EPHA2-mRuby3; EPHA2-mClover3) (human) (UniProt P29317). As to the kind of experiment: FRET or BRET. Background: BRET reads energy transfer from a luciferase to a nearby fluorophore.
The target in assay [2] is ROBO1 fused to a fluorescent protein for FRET (ROBO1-mClover3) (human) (UniProt Q9Y6N7). Kind of assay: FRET or BRET.
UniProt Q9Y6N7, sequence (Q9Y6N7 26-1651): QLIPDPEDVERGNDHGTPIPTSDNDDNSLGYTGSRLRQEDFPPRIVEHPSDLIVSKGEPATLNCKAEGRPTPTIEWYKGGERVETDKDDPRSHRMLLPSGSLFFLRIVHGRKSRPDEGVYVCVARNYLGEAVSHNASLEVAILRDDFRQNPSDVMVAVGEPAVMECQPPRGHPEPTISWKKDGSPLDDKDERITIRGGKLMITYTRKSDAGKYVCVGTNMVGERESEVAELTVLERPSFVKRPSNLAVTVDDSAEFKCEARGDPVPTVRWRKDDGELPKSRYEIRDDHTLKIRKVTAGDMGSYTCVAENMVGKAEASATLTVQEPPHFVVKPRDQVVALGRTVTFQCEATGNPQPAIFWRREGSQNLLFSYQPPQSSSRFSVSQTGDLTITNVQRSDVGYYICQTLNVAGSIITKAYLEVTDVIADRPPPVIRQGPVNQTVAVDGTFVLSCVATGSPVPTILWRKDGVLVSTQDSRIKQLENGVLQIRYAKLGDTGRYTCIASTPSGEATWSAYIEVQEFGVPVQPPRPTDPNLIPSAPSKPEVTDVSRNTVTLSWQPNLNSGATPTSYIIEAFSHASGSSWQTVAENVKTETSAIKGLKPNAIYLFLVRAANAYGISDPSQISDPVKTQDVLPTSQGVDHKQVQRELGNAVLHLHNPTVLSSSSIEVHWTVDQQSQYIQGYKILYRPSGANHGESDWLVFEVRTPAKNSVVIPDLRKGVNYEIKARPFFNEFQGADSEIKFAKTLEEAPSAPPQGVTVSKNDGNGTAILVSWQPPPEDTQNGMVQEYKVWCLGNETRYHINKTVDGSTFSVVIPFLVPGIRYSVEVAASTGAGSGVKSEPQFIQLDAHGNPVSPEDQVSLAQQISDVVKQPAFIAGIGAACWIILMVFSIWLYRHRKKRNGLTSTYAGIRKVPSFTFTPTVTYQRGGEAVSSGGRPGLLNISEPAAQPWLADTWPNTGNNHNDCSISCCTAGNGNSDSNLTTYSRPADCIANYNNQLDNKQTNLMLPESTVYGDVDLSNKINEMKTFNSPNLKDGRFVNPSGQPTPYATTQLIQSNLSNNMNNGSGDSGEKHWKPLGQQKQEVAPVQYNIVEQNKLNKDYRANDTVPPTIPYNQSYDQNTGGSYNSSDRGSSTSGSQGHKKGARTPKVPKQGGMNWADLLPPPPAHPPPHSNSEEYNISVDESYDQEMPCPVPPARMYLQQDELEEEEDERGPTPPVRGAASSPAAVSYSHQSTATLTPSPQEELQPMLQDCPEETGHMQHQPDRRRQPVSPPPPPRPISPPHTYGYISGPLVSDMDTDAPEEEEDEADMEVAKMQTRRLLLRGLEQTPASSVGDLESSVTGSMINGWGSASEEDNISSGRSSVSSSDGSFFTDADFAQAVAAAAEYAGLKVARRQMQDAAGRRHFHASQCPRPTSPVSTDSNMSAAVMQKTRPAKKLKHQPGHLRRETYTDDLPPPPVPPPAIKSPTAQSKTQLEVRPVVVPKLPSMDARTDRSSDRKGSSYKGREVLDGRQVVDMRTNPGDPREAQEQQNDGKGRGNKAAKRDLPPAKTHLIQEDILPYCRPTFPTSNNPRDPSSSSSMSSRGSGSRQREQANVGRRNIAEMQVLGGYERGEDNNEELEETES

In the case of “EPHA2 fused to a fluorescent protein for FRET (EPHA2-mRuby3; EPHA2-mClover3) (from UniProt P29317 24-976) (receptor)”, the N-FRET in assay [1] turned out to be 0.347; in assay [2], 0.234.
